Reference: PMC6120219
Where a chain is given by its changes, count along the chain named. Numbers in names are those of the source.

Biological target: T1, human TRAP1 (TNF receptor-associated protein 1), full-length WT without mitochondrial signal sequence (human) (UniProt Q12931)
T1 sequence: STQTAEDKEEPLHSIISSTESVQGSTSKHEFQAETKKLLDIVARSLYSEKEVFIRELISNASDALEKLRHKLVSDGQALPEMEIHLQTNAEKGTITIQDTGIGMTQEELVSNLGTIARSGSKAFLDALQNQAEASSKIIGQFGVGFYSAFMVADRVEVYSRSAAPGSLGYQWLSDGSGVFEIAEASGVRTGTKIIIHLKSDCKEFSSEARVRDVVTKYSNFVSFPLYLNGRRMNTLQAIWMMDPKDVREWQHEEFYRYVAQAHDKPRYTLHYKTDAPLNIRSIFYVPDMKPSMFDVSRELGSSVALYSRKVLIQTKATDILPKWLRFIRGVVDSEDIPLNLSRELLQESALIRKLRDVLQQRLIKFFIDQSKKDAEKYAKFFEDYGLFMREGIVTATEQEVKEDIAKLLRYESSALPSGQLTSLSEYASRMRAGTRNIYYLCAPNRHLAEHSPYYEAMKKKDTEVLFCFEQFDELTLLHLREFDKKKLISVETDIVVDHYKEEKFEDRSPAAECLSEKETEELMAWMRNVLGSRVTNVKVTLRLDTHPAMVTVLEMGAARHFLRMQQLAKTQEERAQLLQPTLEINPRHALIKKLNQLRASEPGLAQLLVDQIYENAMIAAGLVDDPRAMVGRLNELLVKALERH

B1: human TRAP1 D158N point mutant (natural protein)
chain: T1 sequence with D99N
Vmax of ATPase activity of the WT:D158N heterodimer mixture, ATP titration with CaCl2 (μM ATP min^−1/μM ATPase): 2.31 | Vmax of ATPase activity of the WT:D158N heterodimer mixture, ATP titration with MgCl2 (μM ATP min^−1/μM ATPase): 3.77
